Laboratory results taken from publication PMC11006857, “Structure-guided functional suppression of AML-associated DNMT3A hotspot mutations” (Nature Communications, 2024).
Positions count from the first letter of the chain named. In names and notes the source's numbering stands.

How the values were obtained:
[1] = target: DNMT3A^R882H/N879A protein (as used for size-exclusion chromatography) (human); test: SEC; Superose 6 Increase 10/300 GL, 100 µL of 3 mg/mL protein, 4 °C, 20 mM Hepes pH 7.2, 250 mM NaCl, 5% glycerol, 5 mM DTT; elution volume against molecular weight standards
[2] = target: the molecule itself; test: as above
[3] = target: the molecule itself; test: crystal structure; DNMT3A MTase domain with S-adenosyl-homocysteine; sitting drop vapor diffusion, 0.2-0.4 M potassium sodium tartrate, 4 °C; homotetramer via RD and FF interfaces

DNMT3A^R882H/N879A protein (as used for size-exclusion chromatography) (domain or fragment)
stoichiometry N [1]: 4

B1: MBP-tagged DNMT3A MTase domain R676K (domain or fragment, human, UniProt Q9Y6K1 628-912, looked up)
chain: AEKRKPIRVLSLFDGIATGLLVLKDLGIQVDRYIASEVCEDSITVGMVKHQGKIMYVGDVRSVTQKHIQEWGPFDLVIGGSPCNDLSIVNPARKGLYEGTGRLFFEFYRLLHDARPKEGDDRPFFWLFENVVAMGVSDKRDISRFLESNPVMIDAKEVSAAHRARYFWGNLPGMNRPLASTVNDKLELQECLEHGRIAKFSKVRTITTRSNSIKQGKDQHFPVFMNEKEDILWCTEMERVFGFPVHYTDVSNMSRLARQRLLGRSWSVPVIRHLFAPLKEYFACV
notes: human DNMT3A MTase domain, residues 628-912; source: E. coli BL21(DE3) RIL, purified; not shown: MBP, N-terminal, kept
binding result [2]: binds

B2: MBP-tagged DNMT3A MTase domain M674T/R676K (domain or fragment, human, UniProt Q9Y6K1 628-912, looked up)
chain: B1 chain with M47T
notes: as for B1
binding result [2]: binds

B3: DNMT3A^R882H/N879A (crystallised form) (domain or fragment, human)
chain: B1 chain with K49R, N252A, R255H
notes: human DNMT3A; the abstract speaks of crystal structures of the methyltransferase domain; The crystallisation methods name only R882H/R676K and R882C/R676K as mutants; probably residues 628-912 like the others; also called DNMT3A^N879A/R882H; N879A/R882H-mutated DNMT3A; source: E. coli BL21(DE3) RIL, purified
stoichiometry N [3]: 4
